# Laboratory results reported in article PMC6337131, “Kinetics and Predicted Structure of a Novel Xylose Reductase from Chaetomium thermophilum” (International Journal of Molecular Sciences, 2019).
# B1: CtXR; xylose reductase from Chaetomium thermophilum (Thermochaetoides thermophila DSM 1495) (protein)
# chain: MAPQIPNIKLSSGYDMPQVGFGLWKVDRSICADVVYNAIKIGYRLFDGACDYGNEVEAGQGIARAIKEGIVKREELFIVSKLWNTFHDGDKVEPIVRKQLADWGIDYFDLYLVHFPVALEYVDPSVRYPPGWFYDGEKEIRPSKATIQETWTAMESLVEKGLARSIGVSNFQAQLLYDLLRYAKIRPATLQIEHHPFLVQQELLNLAKAEGIAVTAYSSFGPQSFLEFNMKHAVQLTPLFEDETIKKIAAKYNRPASQVLLRWATQRGLAIIPKSTRPEIMKSNLESIEFDLSEEDIATISAFDRGLRFNQPTNYFPTEHLWIFG
# notes: full-length ORF, codon optimized, pET28a, C-terminal His6 tag kept, E. coli BL21(DE3), IMAC and SEC; theoretical mass 39,244 Da; oligomer not determined (XRs commonly dimers)
# What was measured:
# purified protein [1] = substrate: NC(=O)C1=CN([C@@H]2O[C@H](COP(=O)(O)OP(=O)(O)OC[C@H]3O[C@@H](n4cnc5c(N)ncnc54)[C@H](OP(=O)(O)O)[C@@H]3O)[C@@H](O)[C@H]2O)C=CC1; assay: purified protein; assay type: biochemical, Thermochaetoides thermophila; conditions: 0.5 M D-xylose, 50 mM bis-tris pH 6.5, 30 °C, varied: cofactor
# purified protein [2] = substrate: NC(=O)C1=CN([C@@H]2O[C@H](COP(=O)(O)OP(=O)(O)OC[C@H]3O[C@@H](n4cnc5c(N)ncnc54)[C@H](O)[C@@H]3O)[C@@H](O)[C@H]2O)C=CC1; assay: purified protein; assay type: biochemical, Thermochaetoides thermophila; conditions: 0.5 M D-xylose, 50 mM bis-tris pH 6.5, 30 °C, varied: cofactor
protein,measurement,setting,value
B1,Km,purified protein [1],135 ± 44 µM
same,kcat,purified protein [1],11.4 ± 1.1 s⁻¹
same,kcat/Km,purified protein [1],85000 ± 28300 M⁻¹ s⁻¹
same,Km,purified protein [2],119 ± 6 µM
same,kcat,purified protein [2],3.2 ± 0.1 s⁻¹
same,kcat/Km,purified protein [2],26700 ± 1670 M⁻¹ s⁻¹
